B1: POU domain, class 3, transcription factor 1, residues 247 to 324; numbered along this chain, Q03052 (parent)
chain: EDAPSSDDLEQFAKQFKQRRIKLGFTQADVGLALGTLYGNVFSQTTICRFEALQLSFKNMCKLKPLLNKWLEETDSSS

± gives the uncertainty stated by the source.

The variants in this series derive from B1. The series can be described thus: abundance fitness (aPCA) (normalised: wild type 0, dead -1); higher = more abundant; growth selection in yeast, the domain comes from the species named. The note with it: Homo sapiens.
Regarding EDAPSDDDLEQFAKQFKQRRIKLGFTQADVGLALGTLYGNVFSQTTICRFEALQLSFKNMCKLKPLLNKWLEETDSSS [S6D], the abundance fitness was 0.125 ± 0.096.

Consider EDAPSRDDLEQFAKQFKQRRIKLGFTQADVGLALGTLYGNVFSQTTICRFEALQLSFKNMCKLKPLLNKWLEETDSSS [S6R], for which the abundance fitness amounted to 0.365 ± 0.047. Next, EDAPSEDDLEQFAKQFKQRRIKLGFTQADVGLALGTLYGNVFSQTTICRFEALQLSFKNMCKLKPLLNKWLEETDSSS [S6E]: 0.223 ± 0.069. To EDAPSKDDLEQFAKQFKQRRIKLGFTQADVGLALGTLYGNVFSQTTICRFEALQLSFKNMCKLKPLLNKWLEETDSSS [S6K] belongs 0.49 ± 0.067. EDAPSYDDLEQFAKQFKQRRIKLGFTQADVGLALGTLYGNVFSQTTICRFEALQLSFKNMCKLKPLLNKWLEETDSSS [S6Y]: the abundance fitness was 0.043 ± 0.45. Next, EDAPSMDDLEQFAKQFKQRRIKLGFTQADVGLALGTLYGNVFSQTTICRFEALQLSFKNMCKLKPLLNKWLEETDSSS [S6M]: 0.473 ± 0.07. Take EDAPSWDDLEQFAKQFKQRRIKLGFTQADVGLALGTLYGNVFSQTTICRFEALQLSFKNMCKLKPLLNKWLEETDSSS [S6W]: the abundance fitness was 0.405 ± 0.063. To EDAPSHDDLEQFAKQFKQRRIKLGFTQADVGLALGTLYGNVFSQTTICRFEALQLSFKNMCKLKPLLNKWLEETDSSS [S6H] belongs 0.308 ± 0.14; to EDAPSCDDLEQFAKQFKQRRIKLGFTQADVGLALGTLYGNVFSQTTICRFEALQLSFKNMCKLKPLLNKWLEETDSSS [S6C], 0.398 ± 0.14; to EDAPSIDDLEQFAKQFKQRRIKLGFTQADVGLALGTLYGNVFSQTTICRFEALQLSFKNMCKLKPLLNKWLEETDSSS [S6I], 0.346 ± 0.13. Turning to EDAPSQDDLEQFAKQFKQRRIKLGFTQADVGLALGTLYGNVFSQTTICRFEALQLSFKNMCKLKPLLNKWLEETDSSS [S6Q], the abundance fitness came to 0.436 ± 0.087. To EDAPSNDDLEQFAKQFKQRRIKLGFTQADVGLALGTLYGNVFSQTTICRFEALQLSFKNMCKLKPLLNKWLEETDSSS [S6N] belongs 0.178 ± 0.11. To EDAPSADDLEQFAKQFKQRRIKLGFTQADVGLALGTLYGNVFSQTTICRFEALQLSFKNMCKLKPLLNKWLEETDSSS [S6A] belongs 0.427 ± 0.051; to EDAPSGDDLEQFAKQFKQRRIKLGFTQADVGLALGTLYGNVFSQTTICRFEALQLSFKNMCKLKPLLNKWLEETDSSS [S6G], 0.321 ± 0.041; to EDAPSFDDLEQFAKQFKQRRIKLGFTQADVGLALGTLYGNVFSQTTICRFEALQLSFKNMCKLKPLLNKWLEETDSSS [S6F], 0.355 ± 0.15. For EDAPSTDDLEQFAKQFKQRRIKLGFTQADVGLALGTLYGNVFSQTTICRFEALQLSFKNMCKLKPLLNKWLEETDSSS [S6T], the abundance fitness worked out at 0.38 ± 0.084. Next, EDAPSPDDLEQFAKQFKQRRIKLGFTQADVGLALGTLYGNVFSQTTICRFEALQLSFKNMCKLKPLLNKWLEETDSSS [S6P]: 0.162 ± 0.11.

For the variant EDATSSDDLEQFAKQFKQRRIKLGFTQADVGLALGTLYGNVFSQTTICRFEALQLSFKNMCKLKPLLNKWLEETDSSS [P4T], the abundance fitness turned out to be 0.019 ± 0.083.

Turning to EDARSSDDLEQFAKQFKQRRIKLGFTQADVGLALGTLYGNVFSQTTICRFEALQLSFKNMCKLKPLLNKWLEETDSSS [P4R], the abundance fitness is -0.229 ± 0.056. To EDANSSDDLEQFAKQFKQRRIKLGFTQADVGLALGTLYGNVFSQTTICRFEALQLSFKNMCKLKPLLNKWLEETDSSS [P4N] belongs -0.403 ± 0.23; to EDAYSSDDLEQFAKQFKQRRIKLGFTQADVGLALGTLYGNVFSQTTICRFEALQLSFKNMCKLKPLLNKWLEETDSSS [P4Y], 0.169 ± 0.26; to EDAQSSDDLEQFAKQFKQRRIKLGFTQADVGLALGTLYGNVFSQTTICRFEALQLSFKNMCKLKPLLNKWLEETDSSS [P4Q], -0.24 ± 0.16. Next, EDAWSSDDLEQFAKQFKQRRIKLGFTQADVGLALGTLYGNVFSQTTICRFEALQLSFKNMCKLKPLLNKWLEETDSSS [P4W]: 0.066 ± 0.062; EDAPYSDDLEQFAKQFKQRRIKLGFTQADVGLALGTLYGNVFSQTTICRFEALQLSFKNMCKLKPLLNKWLEETDSSS [S5Y]: -0.062 ± 0.15. To EDAPMSDDLEQFAKQFKQRRIKLGFTQADVGLALGTLYGNVFSQTTICRFEALQLSFKNMCKLKPLLNKWLEETDSSS [S5M] belongs 0.141 ± 0.078. As to EDAPASDDLEQFAKQFKQRRIKLGFTQADVGLALGTLYGNVFSQTTICRFEALQLSFKNMCKLKPLLNKWLEETDSSS [S5A], the abundance fitness was found to be 0.048 ± 0.062. To EDAPRSDDLEQFAKQFKQRRIKLGFTQADVGLALGTLYGNVFSQTTICRFEALQLSFKNMCKLKPLLNKWLEETDSSS [S5R] belongs 0.164 ± 0.046; to EDAPFSDDLEQFAKQFKQRRIKLGFTQADVGLALGTLYGNVFSQTTICRFEALQLSFKNMCKLKPLLNKWLEETDSSS [S5F], -0.143 ± 0.17. On to EDAPDSDDLEQFAKQFKQRRIKLGFTQADVGLALGTLYGNVFSQTTICRFEALQLSFKNMCKLKPLLNKWLEETDSSS [S5D], for which the abundance fitness came to 0.388 ± 0.087. Next, EDAPQSDDLEQFAKQFKQRRIKLGFTQADVGLALGTLYGNVFSQTTICRFEALQLSFKNMCKLKPLLNKWLEETDSSS [S5Q]: 0.042 ± 0.097.

As for EDAPLSDDLEQFAKQFKQRRIKLGFTQADVGLALGTLYGNVFSQTTICRFEALQLSFKNMCKLKPLLNKWLEETDSSS [S5L], the abundance fitness was found to be 0.129 ± 0.051. To EDAPWSDDLEQFAKQFKQRRIKLGFTQADVGLALGTLYGNVFSQTTICRFEALQLSFKNMCKLKPLLNKWLEETDSSS [S5W] belongs -0.206 ± 0.08; to EDAPCSDDLEQFAKQFKQRRIKLGFTQADVGLALGTLYGNVFSQTTICRFEALQLSFKNMCKLKPLLNKWLEETDSSS [S5C], 0.113 ± 0.093. On to EDAPVSDDLEQFAKQFKQRRIKLGFTQADVGLALGTLYGNVFSQTTICRFEALQLSFKNMCKLKPLLNKWLEETDSSS [S5V], for which the abundance fitness is 0.045 ± 0.062. To EDAPISDDLEQFAKQFKQRRIKLGFTQADVGLALGTLYGNVFSQTTICRFEALQLSFKNMCKLKPLLNKWLEETDSSS [S5I] belongs -0.234 ± 0.17.

The record behind these values is the Human Domainome abundance scans (Beltran et al. 2025).
